Data: publication PMC10786891, “Massively parallel profiling of RNA-targeting CRISPR-Cas13d”

T1: EsCas13d, nuclease-dead (Eubacterium siraeum, UniProt B0MS50, R295A;H300A;R849A;H854A)
T1 sequence: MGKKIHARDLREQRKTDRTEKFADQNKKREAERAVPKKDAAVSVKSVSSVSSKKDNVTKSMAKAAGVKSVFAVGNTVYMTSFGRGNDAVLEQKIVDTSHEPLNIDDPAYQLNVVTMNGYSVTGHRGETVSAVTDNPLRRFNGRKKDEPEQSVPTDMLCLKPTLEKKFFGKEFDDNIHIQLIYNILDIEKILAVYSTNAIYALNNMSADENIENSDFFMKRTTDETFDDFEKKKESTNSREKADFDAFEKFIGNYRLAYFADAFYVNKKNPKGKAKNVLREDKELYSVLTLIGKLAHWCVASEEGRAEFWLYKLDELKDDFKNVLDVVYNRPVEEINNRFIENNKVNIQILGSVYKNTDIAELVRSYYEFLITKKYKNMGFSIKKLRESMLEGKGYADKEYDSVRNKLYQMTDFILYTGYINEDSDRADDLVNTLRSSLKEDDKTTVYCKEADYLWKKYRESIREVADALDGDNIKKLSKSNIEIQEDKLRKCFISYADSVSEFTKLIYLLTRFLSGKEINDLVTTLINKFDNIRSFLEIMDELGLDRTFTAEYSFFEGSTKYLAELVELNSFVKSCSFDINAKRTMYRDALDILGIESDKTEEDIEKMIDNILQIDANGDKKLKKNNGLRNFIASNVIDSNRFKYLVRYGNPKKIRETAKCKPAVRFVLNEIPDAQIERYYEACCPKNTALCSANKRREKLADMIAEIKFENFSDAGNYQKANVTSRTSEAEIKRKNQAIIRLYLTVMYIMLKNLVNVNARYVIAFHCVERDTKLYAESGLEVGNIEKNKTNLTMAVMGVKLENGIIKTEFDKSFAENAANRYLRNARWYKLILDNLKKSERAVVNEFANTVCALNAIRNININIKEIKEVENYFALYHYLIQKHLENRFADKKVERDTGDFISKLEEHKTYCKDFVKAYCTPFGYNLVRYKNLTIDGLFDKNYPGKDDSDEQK

B1: target 1 C2A,G17U (mixed)
RNA 1: CACCCGUGCAAAAAUGCAGGGGUCUAAAACUGAGCGGAUAACCUCUCUAUGG
RNA 2: GGGAAUGGAUCCACAUCUACGAAUUCGUACCAUAUAGAGGUUAUCCGCUAACCGAGAUCGGAAGAGCACACGU
B2: target 1 insG 3' of 3,insA 3' of 2 (mixed)
RNA 1: CACCCGUGCAAAAAUGCAGGGGUCUAAAACUGAGCGGAUAACCUCUCUAUGG
RNA 2: GGGAAUGGAUCCACAUCUACGAAUUCGUACCAUAGAGAGGUUAUCCGCUGCAACCGAGAUCGGAAGAGCACACGU
B3: target 1 C2U,C4U (mixed)
RNA 1: CACCCGUGCAAAAAUGCAGGGGUCUAAAACUGAGCGGAUAACCUCUCUAUGG
RNA 2: GGGAAUGGAUCCACAUCUACGAAUUCGUACCAUAGAGAGGUUAUCCGUUUACCGAGAUCGGAAGAGCACACGU
B4: target 3 insU 3' of 22,insG 3' of 7 (mixed)
RNA 1: CACCCGUGCAAAAUUGCAGGGGUCUAAAACGACCUGAAUAUUUCAGAUCAAA
RNA 2: GGGAAUGGAUCCACAUCUACGAAUUCGUUUUUUGAUCUGAAAUAUUGCAGGUCUGCAGAUCGGAAGAGCACACGU
B5: target 3 A5G,C6A (mixed)
RNA 1: CACCCGUGCAAAAUUGCAGGGGUCUAAAACGACCUGAAUAUUUCAGAUCAAA
RNA 2: GGGAAUGGAUCCACAUCUACGAAUUCGUUUUUGAUCUGAAAUAUUAGGGUCUGCAGAUCGGAAGAGCACACGU
B6: target 3 C6U,U8A (mixed)
RNA 1: CACCCGUGCAAAAUUGCAGGGGUCUAAAACGACCUGAAUAUUUCAGAUCAAA
RNA 2: GGGAAUGGAUCCACAUCUACGAAUUCGUUUUUGAUCUGAAAUAAUUAGGUCUGCAGAUCGGAAGAGCACACGU
B7: target 3 G4U,U7C (mixed)
RNA 1: CACCCGUGCAAAAUUGCAGGGGUCUAAAACGACCUGAAUAUUUCAGAUCAAA
RNA 2: GGGAAUGGAUCCACAUCUACGAAUUCGUUUUUGAUCUGAAAUAUCCAUGUCUGCAGAUCGGAAGAGCACACGU
B8: target 3 insA 3' of 22,insG 3' of 2 (mixed)
RNA 1: CACCCGUGCAAAAUUGCAGGGGUCUAAAACGACCUGAAUAUUUCAGAUCAAA
RNA 2: GGGAAUGGAUCCACAUCUACGAAUUCGUUUAUUGAUCUGAAAUAUUCAGGUGCUGCAGAUCGGAAGAGCACACGU
B9: target 3 insA 3' of 10,insU 3' of 6 (mixed)
RNA 1: CACCCGUGCAAAAUUGCAGGGGUCUAAAACGACCUGAAUAUUUCAGAUCAAA
RNA 2: GGGAAUGGAUCCACAUCUACGAAUUCGUUUUUGAUCUGAAAUAAUUCUAGGUCUGCAGAUCGGAAGAGCACACGU
B10: target 3 G19U,U22A (mixed)
RNA 1: CACCCGUGCAAAAUUGCAGGGGUCUAAAACGACCUGAAUAUUUCAGAUCAAA
RNA 2: GGGAAUGGAUCCACAUCUACGAAUUCGUUAUUUAUCUGAAAUAUUCAGGUCUGCAGAUCGGAAGAGCACACGU
B11: target 3 insU 3' of 13,insU 3' of 3 (mixed)
RNA 1: CACCCGUGCAAAAUUGCAGGGGUCUAAAACGACCUGAAUAUUUCAGAUCAAA
RNA 2: GGGAAUGGAUCCACAUCUACGAAUUCGUUUUUGAUCUGAUAAUAUUCAGGUUCUGCAGAUCGGAAGAGCACACGU
B12: target 3 U21A,U22C (mixed)
RNA 1: CACCCGUGCAAAAUUGCAGGGGUCUAAAACGACCUGAAUAUUUCAGAUCAAA
RNA 2: GGGAAUGGAUCCACAUCUACGAAUUCGUUCAUGAUCUGAAAUAUUCAGGUCUGCAGAUCGGAAGAGCACACGU
B13: target 3 insA 3' of 14,insG 3' of 2 (mixed)
RNA 1: CACCCGUGCAAAAUUGCAGGGGUCUAAAACGACCUGAAUAUUUCAGAUCAAA
RNA 2: GGGAAUGGAUCCACAUCUACGAAUUCGUUUUUGAUCUGAAAAUAUUCAGGUGCUGCAGAUCGGAAGAGCACACGU
B14: target 3 insC 3' of 11,insU 3' of 3 (mixed)
RNA 1: CACCCGUGCAAAAUUGCAGGGGUCUAAAACGACCUGAAUAUUUCAGAUCAAA
RNA 2: GGGAAUGGAUCCACAUCUACGAAUUCGUUUUUGAUCUGAAACUAUUCAGGUUCUGCAGAUCGGAAGAGCACACGU
B15: target 3 G4A,A5U (mixed)
RNA 1: CACCCGUGCAAAAUUGCAGGGGUCUAAAACGACCUGAAUAUUUCAGAUCAAA
RNA 2: GGGAAUGGAUCCACAUCUACGAAUUCGUUUUUGAUCUGAAAUAUUCUAGUCUGCAGAUCGGAAGAGCACACGU
B16: target 3 insG 3' of 8,insU 3' of 3 (mixed)
RNA 1: CACCCGUGCAAAAUUGCAGGGGUCUAAAACGACCUGAAUAUUUCAGAUCAAA
RNA 2: GGGAAUGGAUCCACAUCUACGAAUUCGUUUUUGAUCUGAAAUAUGUCAGGUUCUGCAGAUCGGAAGAGCACACGU
B17: target 3 insU 3' of 11,insG 3' of 2 (mixed)
RNA 1: CACCCGUGCAAAAUUGCAGGGGUCUAAAACGACCUGAAUAUUUCAGAUCAAA
RNA 2: GGGAAUGGAUCCACAUCUACGAAUUCGUUUUUGAUCUGAAAUUAUUCAGGUGCUGCAGAUCGGAAGAGCACACGU
B18: target 3 U21C,U22A (mixed)
RNA 1: CACCCGUGCAAAAUUGCAGGGGUCUAAAACGACCUGAAUAUUUCAGAUCAAA
RNA 2: GGGAAUGGAUCCACAUCUACGAAUUCGUUACUGAUCUGAAAUAUUCAGGUCUGCAGAUCGGAAGAGCACACGU
B19: target 3 insC 3' of 8,insA 3' of 3 (mixed)
RNA 1: CACCCGUGCAAAAUUGCAGGGGUCUAAAACGACCUGAAUAUUUCAGAUCAAA
RNA 2: GGGAAUGGAUCCACAUCUACGAAUUCGUUUUUGAUCUGAAAUAUCUCAGGAUCUGCAGAUCGGAAGAGCACACGU
B20: target 3 insG 3' of 22,insG 3' of 2 (mixed)
RNA 1: CACCCGUGCAAAAUUGCAGGGGUCUAAAACGACCUGAAUAUUUCAGAUCAAA
RNA 2: GGGAAUGGAUCCACAUCUACGAAUUCGUUUGUUGAUCUGAAAUAUUCAGGUGCUGCAGAUCGGAAGAGCACACGU
B21: target 3 G4C,U21C (mixed)
RNA 1: CACCCGUGCAAAAUUGCAGGGGUCUAAAACGACCUGAAUAUUUCAGAUCAAA
RNA 2: GGGAAUGGAUCCACAUCUACGAAUUCGUUUCUGAUCUGAAAUAUUCACGUCUGCAGAUCGGAAGAGCACACGU
B22: target 3 insC 3' of 21,insU 3' of 4 (mixed)
RNA 1: CACCCGUGCAAAAUUGCAGGGGUCUAAAACGACCUGAAUAUUUCAGAUCAAA
RNA 2: GGGAAUGGAUCCACAUCUACGAAUUCGUUUUCUGAUCUGAAAUAUUCAGUGUCUGCAGAUCGGAAGAGCACACGU
B23: target 3 insG 3' of 22,insG 3' of 22 (mixed)
RNA 1: CACCCGUGCAAAAUUGCAGGGGUCUAAAACGACCUGAAUAUUUCAGAUCAAA
RNA 2: GGGAAUGGAUCCACAUCUACGAAUUCGUUUGGUUGAUCUGAAAUAUUCAGGUCUGCAGAUCGGAAGAGCACACGU
B24: target 3 U2C,G4U (mixed)
RNA 1: CACCCGUGCAAAAUUGCAGGGGUCUAAAACGACCUGAAUAUUUCAGAUCAAA
RNA 2: GGGAAUGGAUCCACAUCUACGAAUUCGUUUUUGAUCUGAAAUAUUCAUGCCUGCAGAUCGGAAGAGCACACGU
B25: target 3 G3C,G4U (mixed)
RNA 1: CACCCGUGCAAAAUUGCAGGGGUCUAAAACGACCUGAAUAUUUCAGAUCAAA
RNA 2: GGGAAUGGAUCCACAUCUACGAAUUCGUUUUUGAUCUGAAAUAUUCAUCUCUGCAGAUCGGAAGAGCACACGU
B26: target 3 G4U,A9G (mixed)
RNA 1: CACCCGUGCAAAAUUGCAGGGGUCUAAAACGACCUGAAUAUUUCAGAUCAAA
RNA 2: GGGAAUGGAUCCACAUCUACGAAUUCGUUUUUGAUCUGAAAUGUUCAUGUCUGCAGAUCGGAAGAGCACACGU
B27: target 3 U2A,U7G (mixed)
RNA 1: CACCCGUGCAAAAUUGCAGGGGUCUAAAACGACCUGAAUAUUUCAGAUCAAA
RNA 2: GGGAAUGGAUCCACAUCUACGAAUUCGUUUUUGAUCUGAAAUAUGCAGGACUGCAGAUCGGAAGAGCACACGU
B28: target 3 insA 3' of 10,insA 3' of 8 (mixed)
RNA 1: CACCCGUGCAAAAUUGCAGGGGUCUAAAACGACCUGAAUAUUUCAGAUCAAA
RNA 2: GGGAAUGGAUCCACAUCUACGAAUUCGUUUUUGAUCUGAAAUAAUAUCAGGUCUGCAGAUCGGAAGAGCACACGU

These binders were tested against T1, EsCas13d, nuclease-dead (assay: crRNA (strand 1, pre-loaded); Mg2+; 40 mM Tris-HCl pH 7.5, 150 mM NaCl, 6 mM MgCl2, 1 mM DTT, 0.1% Tween-20, 0.2 mg/ml BSA; 25 C; 10 min per concentration, then washed). Details: tags: His6-TwinStrep-SUMO cleaved; N-terminal SNAP kept (SNAP-Surface 488); label: 3' end held by stalled T7 RNA polymerase.
B1 was tested, and the Kd was 30.5 ± 2.6 nM.
With B2 the Kd was 6.5 ± 0.4 nM.
B3 showed a Kd of 58 ± 17 nM.
B4 was tested, and the Kd was 85 ± 26.5 nM.
For B5, the Kd was 34.1 ± 3.35 nM.
With B6 the Kd was 50.8 ± 4.85 nM.
In the case of B7, the Kd is reported as 120 ± 40 nM.
Work on B8 yielded a Kd of 32.9 ± 4.15 nM.
Work on B9 yielded a Kd of 79.5 ± 14.5 nM.
B10 gave a Kd of 80 ± 7 nM.
Work on B11 yielded a Kd of 64.5 ± 20 nM.
In the case of B12, the Kd is reported as 37.3 ± 5.65 nM.
In the case of B13, the Kd is reported as 32.8 ± 3.65 nM.
Binder B14 has a Kd of 74.5 ± 33.5 nM.
Binder B15 has a Kd of 19.3 ± 2.25 nM.
With B16 the Kd was 85.5 ± 29.5 nM.
In the case of B17, the Kd is reported as 42.5 ± 6 nM.
In the case of B18, the Kd is reported as 30.5 ± 7 nM.
B19 gave a Kd of 93 ± 27 nM.
With B20 the Kd was 61 ± 23 nM.
In the case of B21, the Kd is reported as 60 ± 21 nM.
In the case of B22, the Kd is reported as ~68.5 nM.
Work on B23 yielded a Kd of 64.5 ± 13.5 nM.
B24 was tested, and the Kd was 23 ± 5 nM.
In the case of B25, the Kd is reported as 18.3 ± 3.2 nM.
B26 gave a Kd of 37.5 ± 4 nM.
B27 was tested, and the Kd was 62.5 ± 10.5 nM.
With B28 the Kd was 110 ± 28 nM.
